Patent US20180186871A1 (SINGAPORE HEALTH SERVICES PTE, published 2018)

T1: human IL-11 (human, UniProt P20809 22-199)
T1 sequence (looked up): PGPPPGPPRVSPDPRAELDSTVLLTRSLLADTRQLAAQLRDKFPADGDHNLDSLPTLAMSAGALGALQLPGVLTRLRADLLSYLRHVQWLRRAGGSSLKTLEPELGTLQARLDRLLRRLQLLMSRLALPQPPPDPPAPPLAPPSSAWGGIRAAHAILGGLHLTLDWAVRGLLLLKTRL


Biological target: T1, human IL-11
Experiment: cell-based or functional assay
Also: test concentration or dose not given here.

Binder | MMP2 production (ng/ml), TGFB1-stimulated human atrial fibroblasts, Experiment 1 (NEG 42.7, POS 70.2) | MMP2 production (ng/ml), TGFB1-stimulated human atrial fibroblasts, Experiment 2 (NEG 36.2, POS 62.3)
YU100-G09 (scFv) scFv: EVQLVESGGGVVQPGRSLRLSCAASGFTFSSYGMHWVRQAPGKGLEWVAVISYDGSNKYYADSVKGRFTISRDNSKNTLYLQMNSLRAEDTAVYYCAKIGATDPLDYWGQGTLVTVSSGSASAPKLEEGEFSEARVQSALTQPRSVSGSPGQSVTISCTGTISDVGGYNYVSWYQQHPGKAPKLMIYDVTKRPSGVPDRFSGSKSGNTASLTISGLQAEDEAGYYCSSYAGSYTWVFGGGTKLTVL | 59.9 ng/mL | 47.5 ng/mL
YU112-B06 (scFv, not shown: a dimerising Fc or GST) scFv: QVQLVESGGGVVQPGRSLRLSCAASGFTFSSYGMHWVRQAPGKGLEWVAVISYDGSNKYYADSVKGRFTISRDNSKNTLYLQMNSLRAEDTAVYYCAKIGATDPLDYWGQGTLVTVSSGSASAPKLEEGEFSEARVQSALTQPASVSGSPGQSITISCTGTSSDVGGYNYVSWYQQHPGKAPKLMIYDVSNRPSGVSNRFSGSKSGNTASLTIFGLQAEDEADYYCSSYTSSSSWVFGGGTKLTVL | 49.7 ng/mL | 43.9 ng/mL
YU112-D08 (scFv) scFv: QVQLVESGGGVVQPGRSLRLSCAASGFTFSSYGMHWVRQAPGKGLEWVAVISYDGSNKYYADSVEGRFTISRDNSKNTLYLQMNSLRAEDTAVYYCAKIGATDPLDYWGQGTLVTVSSGSASAPKLEEGEFSEARVQSALTQPRSVSGSPGQSVTISCTGTISDVGGYNYVSWYQQHPGKAPKLMIYDVTKRPSGVPDRFSGSKSGNTASLTISGLQAEDEAGYYCSSYAGSYTWVFGGGTELTVL | 50.3 ng/mL | 42.5 ng/mL
YU100-H11 (scFv, not shown: a dimerising Fc or GST) scFv: QVQLVQSGGGVVQPGRSLRLSCAASGFTFSSYGMHWVRQAPGKGLEWVAVISYDGSNKYYADSVKGRFTISRDNSKNTLYLQMNSLRAEDTAVYYCAKIGATDPLDYWGQGTLVTVSSGSASAPKLEEGEFSEARVQSALTQPASVSGSPGQSITISCTGTSSDVGGYNYVSWYQQHPGKAPKLMIYDVSNRPSGVSNRFSGSKSGNTASLTISGLQAEDEADYYCCSYAGSYTWVFGGGTKLTVL | 53.7 ng/mL | 45.5 ng/mL
YU112-G06 (scFv) scFv: QVQLQESGGGVVQPGRSLRLSCAASGFTFSSYGMHWVRQAPGKGLEWVAVISYDGSNKYYADSVKGRFTISRDNSKNTLYLQMNSLRAEDTAVYYCAKIGATDPLDYWGQGTLVTVSSGSASAPKLEEGEFSEARVQSALTQPRSVSGSPGQSVTISCTGTISDVGGYNYVSWYQQHPGKAPKLMIYDVTKRRSGVPDRFSGSKSGNTASLTISGLQAEDEAGYYCSSYAGGYTWVFGGGTELTVL | 55 ng/mL | 47.8 ng/mL
YU100-H05 (scFv) scFv: QVQLVESGGGVVQPGRSLRLSCAASGFTFSSYGMHWVRQAPGKGLEWVAVISYDGSNKYYADSVKGRFTISRDNSKNTLYLQMNSLRAEDTAVYYCAKIGATDPLDYWGQGTLVTVSSGSASAPKLEEGEFSEARVQAVLTQPRSVSGSPGQSITISCTGTGSNVGGYNYVSWYQQHPGQAPKLMIYDVSKRPSGVPDRFSGSKSGNTASLTISGLQAEDEADYYCCSYAGTYTWVFGGGTKLTVL | 57.1 ng/mL | 47.8 ng/mL
YU112-A07 (scFv, not shown: a dimerising Fc or GST) scFv: QVQLVESGGGVVQPGRSLRLSCAASGFTFSSYGMHWVRQAPGKGLEWVAVISYDGSNKYYTDSVKGRFTISRDNSKNTLYLQMNSLRAEDTAVYYCAKIGATDPLDYWGQGTLVTVSSGSASAPKLEEGEFSEARVQSALTQPRSVSGSPGQSVTISCTGTISDVGGYNYVSWYQQHPGKAPKLMIYDVTKRPSGVPDRFSGSKSGNTASLTISGLQAEDEAGYYCSSYAGSYTWVFGGGTELTVL | 50.7 ng/mL | 45 ng/mL
YU100-E11 (scFv) scFv: QVQLVESGGGVVQPGRSLRLSCAASGFTFSSYGMHWVRQAPGKGLEWVAVISYDGSNKYYADSVKGRFTISRDNSKNTLYLQMNSLRAEDTAVYYCARIMGYDYGDYDVVDYWGQGTLVTVSSGSASAPKLEEGEFSEARVQSALTQPRSVSGSPGQSVTISCTGTSSDVGGYNYVSWYQQHPGKAPKLMIYDVSKRPSGVPDRFSGSKSGNTASLTISGLQAEDEADYYCCSYAGSYTWVFGGGTKLTVL | 49.1 ng/mL | 41.9 ng/mL
YU100-F07 (scFv) scFv: QVQLVESGGGVVQPGRSLRLSCAASGFTFSSYAMHWVRQAPGKGLEWVAVISYDGSNKYYADSVKGRFTISRDNSKNTLYLQMNSLRAEDTAVYYCARIMGYDYGDYDVVDYWGQGTLVTVSSGSASAPKLEEGEFSEARVQSALTQPRSVSVSPGQSVTISCTGTSSDVGGYEYVSWYQQHPGKAPKLMIYDVTKRPSGVPDRFSGSKSGNTASLTISGLQGEDAADYYCCSYAGSYTWVFGGGTTVTVL | 53.1 ng/mL | 46.6 ng/mL
YU100-E09 (scFv) scFv: QVQLVESGGGVVQPGRSLRLSCAASGFTFSSYAMHWVRQAPGKGLEWVAVISYDGSNKYYADSVKGRFTISRDNSKNTLYLQMNSLRAEDTAVYYCARIMGYDYGDYDVVDYWGQGTLVTVSSGSASAPKLEEGEFSEARVQSALTQPRSVSGSPGQSVTISCTGTSSDVGDYDYVSWYQQHPGKAPKLIIYDVTKRPSGIPDRFSGSKSGNTASLTISGLQAEDEADYYCCSYAGSYTWVFGRGTKLTVL | 51.7 ng/mL | 44.4 ng/mL
YU100-E08 (scFv) scFv: QVQLVQSGGGVVQPGRSLRLSCAASGFTFSSYAMHWVRQAPGKGLEWVAVISYDGSNKYYADSVKGRFTISRDNSKNTLYLQMNSLRAEDTAVYYCARIMGYDYGDYDVVDYWGQGTLVTVSSGSASAPKLEEGEFSEARVQSALTQPRSVSGSPGQSVTISCTGTSSDVGGYNYVSWYQQHPGKAPKLMIYDVSRRPSGVPDRFSGSKSGNTASLTISGLQAEDEADYYCCSYAGNYTWMFGGGTKLTVL | 48.2 ng/mL | 59.7 ng/mL
YU100-H02 (scFv) scFv: QVQLQQSGGGVVQPGRSLRLSCAASGFTFSSYGMHWVRQAPGKGLEWVAVISYDGSNKYYADSVKGRFTISRDNSKNTLYLQMNSLRAEDTAVYYCARIMGYDYGDYDVVDYWGQGTLVTVSSGSASAPKLEEGEFSEARVQSALTQPRSVSRSPGQSVTISCTGTSSDVGTYNYVSWYQQHPGKAPKLMIYDVSKRPSGVPDRFSGSKSGNTASLTISGLQAEDEADYYCCSYAGFYTWVFGGGTKLTVL | 57.5 ng/mL | 51.3 ng/mL
